Reference: article PMC4392985

Biological target: LlaKI restriction endonuclease (Lactococcus lactis KLDS4 (endogenous))
Assay: SEC; Sephadex G-200 10/30 column, buffer B-100 (10 mM Tris-HCl pH 7.5, 1 mM EDTA, 10 mM 2-Mercaptoethanol, 100 mM NaCl), 0.5 mL/min; calibrated with protein standards; LlaKI found by assay of cleavage activity of the fractions; native about 112 kDa against 50 kDa denatured

stoichiometry N: 2
Substance: LlaKI restriction endonuclease (enzyme)
